Experimental data taken from the supplement of paper PMC5998384.

How the values were obtained:
HeLa Kyoto [1] = assay: solubility in G1/S (NP-40 vs SDS abundance) (log2 ratio); higher = more soluble; details: cell cycle stage: G1/S
HeLa Kyoto [2] = assay: melting temperature (median over replicates), in situ; higher = more thermally stable
HeLa Kyoto [3] = assay: solubility change mitosis vs G1/S (difference of NP-40 vs SDS log2 ratios) (log2 ratio difference); higher = more soluble in mitosis
HeLa Kyoto [4] = assay: thermal stability score vs G1/S (z-score of summed log2 fold changes over temperatures); higher = more thermally stable than in G1/S
[5] = cell cycle stage: early G1 (4.5 h after nocodazole release)
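For melting temperature (median over replicates), in situ in this document: HeLa Kyoto cells synchronized by double thymidine or nocodazole block, proteins quantified by TMT10plex mass spectrometry, three independent biological replicates.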
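For solubility change mitosis vs G1/S (difference of NP-40 vs SDS log2 ratios) in this document: synchronized HeLa Kyoto cells (double thymidine block for G1/S, nocodazole release for mitosis), protein amounts in NP-40 versus SDS lysates quantified by mass spectrometry, three biological replicates.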
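For solubility in G1/S (NP-40 vs SDS abundance) in this document: HeLa Kyoto cells arrested at G1/S by double thymidine block, proteins quantified by TMT10plex mass spectrometry in mild NP-40 versus SDS extracts, three biological replicates.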
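For thermal stability score vs G1/S (z-score of summed log2 fold changes over temperatures) in this document: synchronized HeLa Kyoto cells, proteins quantified by TMT10plex mass spectrometry, three biological replicates, mitosis taken 0.5 h after nocodazole release, G1/S directly after double thymidine block.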

Sequence	solubility in G1/S (log2) (HeLa Kyoto [1])	melting temperature (HeLa Kyoto [2]; cell cycle stage: G1/S) [°C]	melting temperature (HeLa Kyoto [2]; cell cycle stage: mitosis) [°C]	solubility change mitosis (log2) (HeLa Kyoto [3])	thermal stability score (HeLa Kyoto [4]; [5])	thermal stability score (HeLa Kyoto [4]; cell cycle stage: mitosis)
MAGGGAGDPGLGAAAAPAPETREHLFKVLVIGELGVGKTSIIKRYVHQLFSQHYRATIGVDFALKVLNWDSRTLVRLQLWDIAGQERFGNMTRVYYKEAVGAFVVFDISRSSTFEAVLKWKSDLDSKVHLPNGSPIPAVLLANKCDQNKDSSQSPSQVDQFCKEHGFAGWFETSAKDNINIEEAARFLVEKILVNHQSFPNEENDVDKIKLDQETLRAENKSQCC [RAB32]	-0.00216	51.8	53.4	-0.0818	4.46	2.79
MAGIAAKLAKDREAAEGLGSHDRAIKYLNQDYEALRNECLEAGTLFQDPSFPAIPSALGFKELGPYSSKTRGIEWKRPTEICADPQFIIGGATRTDICQGALGDCWLLAAIASLTLNEEILARVVPLNQSFQENYAGIFHFQFWQYGEWVEVVVDDRLPTKDGELLFVHSAEGSEFWSALLEKAYAKINGCYEALSGGATTEGFEDFTGGIAEWYELKKPPPNLFKIIQKALQKGSLLGCSIDITSAADSEAITFQKLVKGHAYSVTGAEEVESNGSLQKLIRIRNPWGEVEWTGRWNDNCPSWNTIDPEERERLTRRHEDGEFWMSFSDFLRHYSRLEICNLTPDTLTSDTYKKWKLTKMDGNWRRGSTAGGCRNYPNTFWMNPQYLIKLEEEDEDEEDGESGCTFLVGLIQKHRRRQRKMGEDMHTIGFGIYEVPEELSGQTNIHLSKNFFLTNRARERSDTFINLREVLNRFKLPPGEYILVPSTFEPNKDGDFCIRVFSEKKADYQAVDDEIEANLEEFDISEDDIDDGFRRLFAQLAGEDAEISAFELQTILRRVLAKRQDIKSDGFSIETCKIMVDMLDSDGSGKLGLKEFYILWTKIQKYQKIYREIDVDRSGTMNSYEMRKALEEAGFKMPCQLHQVIVARFADDQLIIDFDNFVRCLVRLETLFKIFKQLDPENTGTIELDLISWLCFSVL [CAPN2]	-0.0212	55.4	54.9	-0.183	-0.784	-1.57
MAGIIKKQILKHLSRFTKNLSPDKINLSTLKGEGELKNLELDEEVLQNMLDLPTWLAINKVFCNKASIRIPWTKLKTHPICLSLDKVIMEMSTCEEPRSPNGPSPIATASGQSEYGFAEKVVEGISVSVNSIVIRIGAKAFNASFELSQLRIYSVNAHWEHGDLRFTRIQDPQRGEVLTFKEINWQMIRIEADATQSSHLEIMCAPVRLITNQSKIRVTLKRRLKDCNVIATKLVLILDDLLWVLTDSQLKAMVQYAKSLSEAIEKSTEQRKSMAPEPTQSSTVVASAQQVKTTQTSNAPDVNDAIVKLFNDFDVKETSHHLVISHLDLHICDDIHAKEKESNRRITGGAMQLSFTQLTIDYYPYHKAGDSCNHWMYFSDATKTKNGWANELLHEFECNVEMLKQAVKDHNVGSPPKSPTHASPQHTQTEKDYPLKGTCRTPSVLSQQSKAKLMSSSVVVRLADFNIYQVSTAEQCRSSPKSMICCNKKSLYLPQEMSAVYIEFTEYYYPDGKDFPIPSPNLYSQLNALQFTVDERSILWLNQFLLDLKQSLNQFMAVYKLNDNSKSDEHVDVRVDGLMLKFVIPSEVKSECHQDQPRAISIQSSEMIATNTRHCPNCRHSDLEALFQDFKDCDFFSKTYTSFPKSCDNFNLLHPIFQRHAHEQDTKMHEIYKGNITPQLNKNTLKTSAATDVWAVYFSQFWIDYEGMKSGKGRPISFVDSFPLSIWICQPTRYAESQKEPQTCNQVSLNTSQSESSDLAGRLKRKKLLKEYYSTESEPLTNGGQKPSSSDTFFRFSPSSSEADIHLLVHVHKHVSMQINHYQYLLLLFLHESLILLSENLRKDVEAVTGSPASQTSICIGILLRSAELALLLHPVDQANTLKSPVSESVSPVVPDYLPTENGDFLSSKRKQISRDINRIRSVTVNHMSDNRSMSVDLSHIPLKDPLLFKSASDTNLQKGISFMDYLSDKHLGKISEDESSGLVYKSGSGEIGSETSDKKDSFYTDSSSILNYREDSNILSFDSDGNQNILSSTLTSKGNETIESIFKAEDLLPEAASLSENLDISKEETPPVRTLKSQSSLSGKPKERCPPNLAPLCVSYKNMKRSSSQMSLDTISLDSMILEEQLLESDGSDSHMFLEKGNKKNSTTNYRGTAESVNAGANLQNYGETSPDAISTNSEGAQENHDDLMSVVVFKITGVNGEIDIRGEDTEICLQVNQVTPDQLGNISLRHYLCNRPVGSDQKAVIHSKSSPEISLRFESGPGAVIHSLLAEKNGFLQCHIENFSTEFLTSSLMNIQHFLEDETVATVMPMKIQVSNTKINLKDDSPRSSTVSLEPAPVTVHIDHLVVERSDDGSFHIRDSHMLNTGNDLKENVKSDSVLLTSGKYDLKKQRSVTQATQTSPGVPWPSQSANFPEFSFDFTREQLMEENESLKQELAKAKMALAEAHLEKDALLHHIKKMTVE [UHRF1BP1L]	-0.0678	53.9	53.8	-0.181	-1.27	-1.34
